# T1: 人源CRTAM蛋白全长 on CHO-K1-hCRTAM cells (human, UniProt O95727 18-393)
# T1 construct: also called 细胞表面hCRTAM
# T1 sequence: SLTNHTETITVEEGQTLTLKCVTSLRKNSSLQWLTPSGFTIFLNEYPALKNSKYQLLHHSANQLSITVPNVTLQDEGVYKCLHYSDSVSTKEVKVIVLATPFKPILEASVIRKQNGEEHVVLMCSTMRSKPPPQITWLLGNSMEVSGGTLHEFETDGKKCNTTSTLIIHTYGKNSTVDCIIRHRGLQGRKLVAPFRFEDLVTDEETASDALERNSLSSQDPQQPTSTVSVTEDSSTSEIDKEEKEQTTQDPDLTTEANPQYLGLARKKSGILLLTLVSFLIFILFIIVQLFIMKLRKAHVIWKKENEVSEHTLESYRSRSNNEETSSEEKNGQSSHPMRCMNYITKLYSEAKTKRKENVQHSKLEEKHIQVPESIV
# T2: 猴源CRTAM蛋白全长 on CHO-K1-cCRTAM cells (猴源 (食蟹猴, cynomolgus monkey), UniProt O95727 18-393 (human entry))
# T2 construct: also called 细胞表面食蟹猴CRTAM
# T2 chain: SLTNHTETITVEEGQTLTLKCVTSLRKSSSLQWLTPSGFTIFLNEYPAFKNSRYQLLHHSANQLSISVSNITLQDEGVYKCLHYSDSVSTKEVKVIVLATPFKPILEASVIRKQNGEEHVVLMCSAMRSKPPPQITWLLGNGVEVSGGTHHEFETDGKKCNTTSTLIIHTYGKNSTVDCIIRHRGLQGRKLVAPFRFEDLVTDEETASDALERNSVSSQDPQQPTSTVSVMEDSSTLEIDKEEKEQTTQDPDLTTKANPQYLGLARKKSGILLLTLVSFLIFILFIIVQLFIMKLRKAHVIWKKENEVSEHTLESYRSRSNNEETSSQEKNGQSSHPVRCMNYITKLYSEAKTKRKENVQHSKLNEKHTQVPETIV
# Key:
# [1] = molecular target: T1, 人源CRTAM蛋白全长 on CHO-K1-hCRTAM cells; assay: flow cytometry on CHO-K1-hCRTAM cells
# [2] = molecular target: T2, 猴源CRTAM蛋白全长 on CHO-K1-cCRTAM cells; assay: flow cytometry on CHO-K1-cCRTAM cells
Binder,EC50 [1],EC50 [2]
"HuC110-34 (antibody, V domains shown, also called HuC110-34-biotin; 抗CRTAM人源化抗体HuC110-34) VH: QVQLVQSGAEVKKPGASVKVSCKASGYTFTNNDINWVKQAPGQRLEWIGWIYPRDGSTQYNEKFRGRATITVDTSASTAYMELSSLRSEDTAVYFCARGLVDYWGQGTLVTVSS VL: DVVMTQSPDSLAVSLGERATINCRSSQSLVHSNKNTYLHWYLQKPGQPPKLLIYKVSNRFSGVPDRFSGSGSGTDFTLTISSLQAEDVAVYYCSQSTRVPWTFGGGTKLEIK",0.0417 µg/mL,0.0507 µg/mL
"HuC124-42 (antibody, V domains shown, also called HuC124-42-biotin; 抗CRTAM人源化抗体HuC124-42) VH: QVQLVQSGAEVKKPGSSVKVSCKASGYSFSNYWIEWVRQAPGQGLEWIGEILPGVPTIYYNAKFKDRVTFTADKSTSTAYMELSSLRSEDTAVYYCSRDPWFAYWGQGTLVTVSA VL: EIVLTQSPATLSVSPGERATFSCRASQSIGTSLHWFQQKPGQAPRLLIKYASQSISGIPARFSGSGSGTEFTLTISSVQSEDFAVYYCQQSNNWPFTFGGGTKLEIK",,0.0904 µg/mL
"HuC94-31 (antibody, V domains shown, also called HuC94-31-biotin; 抗CRTAM人源化抗体HuC94-31) VH: EVQLLESGGGLVQPGGSLRLSCAASGFTFSTSAMSWVRQAPGKGLEWVATISSGGDYTYYSDNVKGRFTISRDNSKSTLYLQMNSLRAEDTAVYYCTLGYDEADYWGQGSLLTVSS VL: DIQMTQSPSSLSASVGDRVTITCRASQDISNYLNWYQQKPGKAPKLLIYYTSRLHSGVPSRFSGSGSGTDYTFTISSLQPEDIATYYCQQGDTFPWTFGGGTKLEIK",,0.035 µg/mL
"人源化抗体5A11 (WO2019/086878) (antibody, human IgG1, lambda, V domains shown, also called 阳性对照抗体; 对照抗体) VH: EVQLVESGGGLVQPGGSLKLSCAASGFTFSDAAMYWVRQASGKGLEWVARIRTKTNNYAAHYVESVKGRFTVSRDDSKNTVYLQMNSLKTEDTAMYYCTSVPQGTQDYWGQGTLVTVSS VL: SYELTQPSSVSVSPGQTARITCSGDVLSKRYAQWSQQKPGQAIVSVIYKDSERPSGIPERFSGSSSGTTATLTISGAQVEDEADYYCLSTYADDNLPVFGGGTKLTVLG",0.0607 µg/mL,

# Reference: patent publication CN115536746A (NANJING SANHOME PHARMACEUTICAL CO LTD, dated 2022)
